Results taken from article PMC4043579 (Reproduction (Cambridge, England), 2014).

Molecular target: T1, mouse gremlin-2 (GREM2; PRDC) (mouse, UniProt O88273 22-168)
T1 sequence (looked up): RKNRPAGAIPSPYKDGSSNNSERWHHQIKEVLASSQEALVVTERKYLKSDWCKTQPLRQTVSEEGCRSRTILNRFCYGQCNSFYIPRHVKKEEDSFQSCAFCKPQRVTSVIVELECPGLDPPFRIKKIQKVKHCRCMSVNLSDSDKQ
Experiment: co-IP

B1: human anti-Müllerian hormone (AMH) (ligand, UniProt P03971 452-560, looked up)
chain: SAGATAADGPCALRELSVDLRAERSVLIPETYQANNCQGVCGWPQSDRNPRYGNHVVLLLKMQVRGAALARPPCCVPTAYAGKLLISLSEERISAHHVPNMVATECGCR
  binding result: binds
